Data taken from the supplement of paper PMC10126150.
± gives the standard deviation of the averaged measurements.

System: ATP
Assay: switch fluorescence ratio, 500 uM ATP over buffer (Cy3 cluster intensity, sum of 5 cycles each) (fold (ratio)); higher = stronger signal-on switching upon ATP binding; sequences stand for … in TCGTCGGCAGCGTCAGATGTGTATAAGAGACAGTTTTTTTTTTTTTTTTTTTTTTTTT…TC
Details: aptamer strand: ATP DNA aptamer (quencher-CACCTGGGGGAGTATTGCGGAGGAAGG + anchor), 100 nM annealed; ATP concentration: 500 uM
Outline: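 Imaging in selection buffer was followed by imaging after 15 min with 500 uM ATP at 22 °C, for Cy3-labelled switching-strand clusters annealed to 100 nM quencher-labelled ATP aptamer on a modified Illumina MiSeq flow-cell. Five of these buffer/ATP cycles ran, separated by NaOH stripping and re-annealing. The fluorescence ratio per cluster is summed target-cycle over summed buffer-cycle Cy3 intensity, averaged per switch-domain sequence; clusters outside 100-1000 RFU were removed.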
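Further: ATP exposure 15 min at 22 °C before imaging.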

Sequence | switch fluorescence ratio
AAGGCGGGTG | 1.01 ± 0.015
AAGGCGTTTT | 1.01 ± 0.018
AAGGCTAATT | 0.979 ± 0.033
AAGGCTGGTG | 1.02 ± 0.015
AAGGCTTGGG | 0.992 ± 0.048
AAGGGAAACA | 1.04 ± 0.072
AAGGGACAGT | 1.03 ± 0.016
AAGGGACGGC | 0.9648 ± 0.0078
AAGGGACTGC | 0.97 ± 0.018
AAGGGAGAAC | 0.986 ± 0.0019
AAGGGAGCAC | 1.02 ± 0.023
AAGGGATCGG | 0.994 ± 0.024
AAGGGCATTG | 0.998 ± 0.015
AAGGGCCCTA | 0.9939 ± 0.0018
AAGGGCCGCG | 1 ± 0.017
AAGGGCGCTG | 1.01 ± 0.048
AAGGGCGGGC | 1.07 ± 0.0085
AAGGGCTTAT | 0.981 ± 0.019
AAGGGCTTGC | 1.01 ± 0.041
AAGGGGACCC | 1.04 ± 0.043
AAGGGGATT | 1.01 ± 0.027
AAGGGGCTTG | 0.986 ± 0.036
AAGGGGGACA | 0.992 ± 0.032
AAGGGGGATT | 1.01 ± 0.044
AAGGGGGCCA | 0.982 ± 0.074

Sequence | switch fluorescence ratio
AAGGGGGGCT | 0.996 ± 0.03
AAGGGGGGGA | 1.01 ± 0.046
AAGGGGGTCC | 1.03 ± 0.036
AAGGGGGTGG | 1.02 ± 0.059
AAGGGGTATT | 1.01 ± 0.027
AAGGGGTGCA | 0.968 ± 0.058
AAGGGGTGTT | 1.02 ± 0.02
AAGGGGTTAT | 1.02 ± 0.05
AAGGGGTTGC | 1.03 ± 0.022
AAGGGGTTGG | 1.01 ± 0.019
AAGGGTAAAT | 0.996 ± 0.033
AAGGGTAACA | 0.991 ± 0.019
AAGGGTCTGG | 0.986 ± 0.024
AAGGGTGCGT | 1.01 ± 0.044
AAGGGTGGAG | 0.996 ± 0.026
AAGGGTGGTA | 0.981 ± 0.016
AAGGGTTCAT | 1.031 ± 0.0099
AAGGGTTGCG | 0.985 ± 0.024
AAGGTAACGG | 0.972 ± 0.038
AAGGTAATCC | 1.01 ± 0.039
AAGGTCGTAT | 0.9922 ± 0.009
AAGGTCTTTG | 1.01 ± 0.043
AAGGTGCCGG | 1.0373 ± 0.00076
AAGGTGCCTG | 1.02 ± 0.064
AAGGTGTCGG | 0.9895 ± 0.0037

Sequence | switch fluorescence ratio
AAGGTGTGCG | 1.02 ± 0.024
AAGGTGTTGG | 1.04 ± 0.021
AAGGTGTTTT | 1.08 ± 0.016
AAGGTTAATT | 1 ± 0.022
AAGGTTACTC | 1.01 ± 0.029
AAGGTTAGGT | 1.03 ± 0.041
AAGGTTCTTT | 0.988 ± 0.022
AAGGTTGATA | 0.988 ± 0.032
AAGGTTGATG | 0.982 ± 0.02
AAGGTTGCAA | 1.01 ± 0.011
AAGGTTGCGC | 0.986 ± 0.026
AAGGTTGGTC | 1 ± 0.027
AAGGTTGTAA | 0.985 ± 0.021
AAGGTTTAGT | 1 ± 0.024
AAGGTTTCAA | 0.985 ± 0.018
AAGGTTTGCG | 1.01 ± 0.025
AAGGTTTGTT | 0.996 ± 0.049
AAGTAAAAAT | 1.05 ± 0.036
AAGTAAAGCT | 1.11 ± 0.06
AAGTAATGGG | 0.961 ± 0.041
AAGTACAGGC | 1.27 ± 0.12
AAGTACCCGG | 1.14 ± 0.026
AAGTACTAGC | 1.212 ± 0.0086
AAGTAGGTAT | 1.02 ± 0.011
AAGTAGTCTT | 0.995 ± 0.014

Sequence | switch fluorescence ratio
AAGTATGGGA | 1.02 ± 0.028
AAGTATTGGT | 1.02 ± 0.041
AAGTCAATTC | 1.36 ± 0.12
AAGTCACGGT | 1.09 ± 0.02
AAGTCAGTGC | 1.11 ± 0.013
AAGTCATGGA | 1.02 ± 0.027
AAGTCATTTG | 1.017 ± 0.0088
AAGTCGCATA | 1.04 ± 0.017
AAGTCGCGGA | 0.999 ± 0.033
AAGTCGGATG | 1.04 ± 0.079
AAGTCGGGTG | 1.08 ± 0.024
AAGTCTATAA | 1.02 ± 0.046
AAGTCTGGGC | 1.01 ± 0.036
AAGTCTGGGG | 1.01 ± 0.027
AAGTGAAATT | 1.02 ± 0.018
AAGTGAATAA | 0.998 ± 0.017
AAGTGAGCAG | 1.012 ± 0.0072
AAGTGATGCT | 1.03 ± 0.087
AAGTGCAGGG | 0.9896 ± 0.0057
AAGTGCGACC | 1.03 ± 0.057
AAGTGGAGGG | 0.985 ± 0.021
AAGTGGGGTT | 1.02 ± 0.029
AAGTGGGTTA | 1.02 ± 0.032
AAGTGGTTA | 0.981 ± 0.026
AAGTGTCCCG | 0.994 ± 0.032

Sequence | switch fluorescence ratio
AAGTGTCGTG | 0.959 ± 0.024
AAGTGTTAG | 0.966 ± 0.011
AAGTGTTGGC | 1.014 ± 0.01
AAGTGTTTT | 1.016 ± 0.005
AAGTTAAAA | 1.04 ± 0.092
AAGTTAAAAG | 0.975 ± 0.012
AAGTTAAGCC | 1.01 ± 0.047
AAGTTAAGGG | 0.995 ± 0.055
AAGTTACATT | 1.05 ± 0.012
AAGTTATCAT | 0.964 ± 0.019
AAGTTATGAC | 1.03 ± 0.029
AAGTTATTAC | 1 ± 0.032
AAGTTCCGGA | 1.034 ± 0.0072
AAGTTCGATG | 0.976 ± 0.025
AAGTTCGCCT | 1.09 ± 0.13
AAGTTCGCTG | 1.01 ± 0.065
AAGTTGACCG | 1.04 ± 0.046
AAGTTGGTGT | 1.02 ± 0.043
AAGTTGTATT | 0.9974 ± 0.0019
AAGTTGTCTG | 0.978 ± 0.056
AAGTTGTGA | 0.973 ± 0.035
AAGTTGTTGT | 1.007 ± 0.0025
AAGTTTGGAT | 0.9919 ± 0.005
AAGTTTGGGC | 0.98 ± 0.036
AAGTTTGTCT | 1.004 ± 0.0053

Sequence | switch fluorescence ratio
AAGTTTGTTT | 0.99 ± 0.028
AAGTTTTTTT | 1 ± 0.025
AATAAAAGGG | 1 ± 0.03
AATAAAATGG | 0.998 ± 0.028
AATAAATGAT | 1.01 ± 0.022
AATAAATTAA | 0.977 ± 0.031
AATAAGACGG | 1.011 ± 0.0061
AATAAGCACA | 1.2 ± 0.028
AATAAGGGA | 1.03 ± 0.1
AATAAGGGGG | 1.01 ± 0.064
AATAAGTTAA | 1 ± 0.026
AATAATAAGA | 1 ± 0.017
AATAATAGCT | 1.01 ± 0.041
AATAATCGAG | 1.027 ± 0.0093
AATAATCGGC | 0.994 ± 0.06
AATAATGCAA | 1.07 ± 0.022
AATAATGCGT | 0.994 ± 0.034
AATAATGCTT | 0.978 ± 0.014
AATAATTCTG | 0.984 ± 0.053
AATAATTTCG | 1.007 ± 0.0082
AATACAGGCT | 0.999 ± 0.024
AATACAGTGA | 0.9986 ± 0.00012
AATACGGTAT | 1.05 ± 0.05
AATACTACTA | 1.05 ± 0.053
AATACTGATG | 1.007 ± 0.0032

Sequence | switch fluorescence ratio
AATAGACGAA | 1.01 ± 0.043
AATAGAGGGG | 0.9926 ± 0.0071
AATAGCTACT | 1.076 ± 0.01
AATAGGAAGT | 1.011 ± 0.007
AATAGGGCCT | 1.02 ± 0.023
AATAGGGGCT | 1.02 ± 0.054
AATAGGGGTG | 1.01 ± 0.043
AATAGTGGCA | 1.02 ± 0.044
AATAGTGGGC | 1.01 ± 0.043
AATAGTGGGT | 1 ± 0.013
AATAGTTTAT | 0.986 ± 0.022
AATATAATGT | 1.03 ± 0.021
AATATCTCAC | 1.022 ± 0.0087
AATATGAGAT | 0.9799 ± 0.0073
AATATGAGTA | 0.993 ± 0.038
AATATGGGTT | 0.9802 ± 0.0091
AATATGTCGG | 1 ± 0.021
AATATTATTA | 1.019 ± 0.0041
AATATTTATT | 1.02 ± 0.0091
AATATTTGGC | 1 ± 0.059
AATATTTTTC | 1.01 ± 0.015
AATCAAACAT | 1.03 ± 0.018
AATCAATCTA | 1.01 ± 0.071
AATCAATTAC | 1.123 ± 0.011
AATCAGCATT | 1.08 ± 0.076

Sequence | switch fluorescence ratio
AATCAGGGTA | 1.01 ± 0.04
AATCAGGGTG | 1.16 ± 0.01
AATCAGTGTA | 1 ± 0.051
AATCAGTTTG | 1.022 ± 0.0094
AATCCAAAAG | 1.026 ± 0.0043
AATCCCTTTT | 1 ± 0.031
AATCCGCTCT | 1.2 ± 0.11
AATCCTGCGT | 1.16 ± 0.21
AATCGAATAT | 1 ± 0.015
AATCGATTTG | 0.989 ± 0.032
AATCGCGGGC | 1.09 ± 0.024
AATCGGATTG | 1 ± 0.025
AATCGGGAGT | 1.013 ± 0.0094
AATCGGGCGC | 1.01 ± 0.048
AATCGGGTGC | 1.05 ± 0.054
AATCGGTAAT | 1.027 ± 0.0081
AATCGGTGGG | 0.997 ± 0.03
AATCGTATAG | 0.9817 ± 0.0042
AATCGTTAGG | 0.969 ± 0.022
AATCTCCGAG | 1.09 ± 0.031
AATCTGGGTG | 1.11 ± 0.034
AATCTTGATG | 0.981 ± 0.03
AATCTTGTGT | 0.985 ± 0.027
AATGAAAATC | 1.08 ± 0.15
AATGAAAGAT | 0.998 ± 0.039
